The test system of series [1] is HL-60 tumour. Kind of series: Biodistribution in HL-60 tumour bearing nude mice. The following applies: 15 kBq/animal intravenous, HL-60 xenograft.
Description: Female NMRI nude mice were xenografted with cells from the human HL-60 tumour cell line. […] 54 female NMRI nude mice (Taconic, Europe) were used in the study.
The animals were allowed an acclimation period of at least 5 days before entering the study and were at an age of 4 weeks before tumour inoculation. […] Animals were kept in individually ventilated cages (IVC, Scanbur) with HEPA filtered air and had ad libitum access to “Rat and mouse nr.3 Breeding” diet (Scanbur BK) and water acidified by addition of HCl to a molar concentration of 1 mM (pH 3.0). HL-60 cells (ATCC/United Kingdom; Catalog Number CCL-240) were grown and prepared for subcutaneous inoculation in IMDM (Invitrogen; #12440-046) in presence of 20% FCS and penicillin/streptomycin. […]
Animals were euthanized at predetermined time points post injection, and blood, muscle, femur, kidneys, lung, liver, stomach, small intestine, large intestine and tumour were collected. Tissues and blood samples were weighed, and the radioactivity in each sample was measured using gamma spectroscopy (HPGe15p or HPGe50p germanium detectors).
The measured radioactivity (Bq) was related to the radioactivity measured in 10% injection standard samples, and the percentage of Th-227 and Ra-223 were calculated and presented as % ID or % ID per gram of tissue.
A further series concerns the target T1, CD33 (Homo sapiens, UniProt P20138).
T1 construct: endogenous in cells; host or cells: HL-60 cells
Kind of series: Binding to CD33-positive HL-60 cells by flow cytometry. The following applies: FIG. 2. How it is done:
Binding to CD33-positive HL-60 cells were studied by flow cytometry. The determination of EC50 based on the plotted curve gives an approximate value for the affinity. The commercially available mouse anti human CD33 (BD Pharmingen; #555450, 1 mg/mL) was used as a reference antibody for assessment of the affinity, including a setup with a 50:50 mixture with the mAb to be analyzed. This assay was also used to confirm that target binding affinity was not negatively affected by conjugation with the chelator.
HL-60 cells were grown in Iscove's Modified Dulbecco's Medium (IMDM; Invitrogen; #12440-046) in the presence of 20% of fetal bovine serum and penicillin/streptomycin. […] Subsequently, 20 μL of the preparation of resuspended cells was diluted 1:500 in Coulter Isoton II Diluent, and counted using a Beckman Coulter Z2 instrument (Beckman Coulter; CA, USA). […]
The mAb or conjugate to be analyzed was prepared fresh form frozen stock by shifting the storage buffer to PBS, kept at 4° C., and used within a few days after preparation. […]
The cells were washed twice, as described above, and re-suspended in 200 μL PBS, supplemented with 0.1% BSA. All samples were analysed in 96-well round or conical bottom plates. Fluorescent signals were recorded on a Beckham Coulter Cell lab Quant SC flow cytometer (Beckman Coulter; CA, USA). […]

The subject of series [2] is CD33 positive HL-60 cells. Description: Th-227-induced cell cytotoxicity (ATP, CellTiter-Glo) in HL-60 cells. The following applies: 3 nM or 0.3 nM, 44 kBq/μg, up to day 7. Format: cell-based, human. As to the method:
In vitro cell cytotoxicity was investigated in CD33 positive HL-60 cells. AGC0715 and the control trastuzumab conjugated AGC0015 were used to chelate Th-227 to a specific activity of 44 kBq/μg. HL-60 cells were grown at 37° C. with 5% CO2, and split 1:5 three times a week. The day before the assay the culture medium (Iscove's Modified Dulbecco's Medium (IMDM) with 20% FBS and 1% Penicillin/Streptomycin) was replaced by new medium and the volume adjusted to give 400 000 cells per mL.
About, 1 600 000 cell (4 mL) were added to each well in a 6 well plate. The plate was incubated until next day for addition of labelled mAb, or culture medium. After adding labelled mAb, or culture medium, the plate was incubated for 4 additional hours. In one experiment AGC0715 or trastuzumab-AGC0015 was added to each well to a final concentration of 3 nM. In another experiment the final concentration was 0.3 nM.
Following incubation, the cells were washed twice in culture medium, and the ATP in the supernatant and in the pellet was measured. The cells were then split 1:2 and incubated in culture medium at 37° C. with 5% CO2. The same procedure, but with only one wash, was repeated at days 2, 4, and 7.
Background: ATP-based viability assays read luminescence as a measure of living cells.

The test system of series [3] is HL-60 tumour. Set-up: species or system mice. The following applies: mouse, in vivo. How it is done: Cell preparation and xenografting of female NMRI nude mice are done as described in Example 9. […] The mice have an approximated body weight of approximately 20 grams at the start of the study. […] Mice will be inoculated with tumour cells about 10 days before dosing in order to have mice with average size of tumours in the range from 75-150 mm3. Animals are randomized into 4 treatment groups and 3 control groups (n=10/group).
Mice in the treatment groups are injected into the tail vein with 100 μL containing 75 kBq/mL, 150 kBq/mL, 225 kBq/mL or 300 kBq/mL AGC0715-Th-227, to achieve 250, 500, 750 or 1000 kBq/kg body weight (b.w.). The mice in the control groups are administered either with vehicle only (buffer), non-radioactive antibody (AGC0715) or trastuzumab-Th-227, labelled to a specific activity of 500 kBq/kg (isotype control).
Appearance of tumours will carefully be monitored, and the tumours will be scored (if not large enough to be measured) or measured thrice a week according to the following scheme:
Tumour diameters will be measured in two dimensions using a digital caliper and the volume will be estimated by the following formula: L×W×[…] (Length×Width×½ Width). […] Body weights will be recorded once a week. […]
The mice will be terminated following maximal tumour size of 15 mm diameter. […] In case of observations of adverse clinical signs, these will be recorded as note to files. […]

T1 sequence (P20138 18-364): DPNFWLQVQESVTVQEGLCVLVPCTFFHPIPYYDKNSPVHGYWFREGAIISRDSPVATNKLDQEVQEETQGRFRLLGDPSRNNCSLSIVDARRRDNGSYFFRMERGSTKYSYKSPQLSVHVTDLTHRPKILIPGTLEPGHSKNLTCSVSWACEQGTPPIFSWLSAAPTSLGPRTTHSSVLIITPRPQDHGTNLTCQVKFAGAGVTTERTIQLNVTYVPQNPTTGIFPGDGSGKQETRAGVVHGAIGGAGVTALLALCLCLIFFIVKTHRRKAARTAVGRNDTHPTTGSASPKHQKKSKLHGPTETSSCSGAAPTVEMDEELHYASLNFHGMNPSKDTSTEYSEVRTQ

B1: AGC0715: AGC0700 conjugated to high-solubility ligand (12) (conjugate)
heavy: QVQLVQSGAEVKKPGSSVKVSCKASGYTFTDYNMHWVRQAPGQGLEWIGYIYPYNGGTGYNQKFKSKATITADESTNTAYMELSSLRSEDTAVYYCARGRPAMDYWGQGTLVTVSSASTKGPSVFPLAPSSKSTSGGTAALGCLVKDYFPEPVTVSWNSGALTSGVHTFPAVLQSSGLYSLSSVVTVPSSSLGTQTYICNVNHKPSNTKVDKKVEPKSCDKTHTCPPCPAPELLGGPSVFLFPPKPKDTLMISRTPEVTCVVVDVSHEDPEVKFNWYVDGVEVHNAKTKPREEQYNSTYRVVSVLTVLHQDWLNGKEYKCKVSNKALPAPIEKTISKAKGQPREPQVYTLPPSRDELTKNQVSLTCLVKGFYPSDIAVEWESNGGQPENNYKTTPPVLDSDGSFFLYSKLTVDKSRWQQGNVFSCSVMHEALHNHYTQKSLSLSPG
light: DIQMTQSPSSLSASVGDRVTITCRASESVDNYGISFMNWFQQKPGKAPKLLIYAASNQGSGVPSRFSGSGSGTDFTLTISSLQPDDFATYYCQQSKEVPWTFGQGTKVEIKRTVAAPSVFIFPPSDEQLKSGTASVVCLLNNFYPREAKVQWKVDNALQSGNSQESVTEQDSKDSTYSLSSTLTLSKADYEKHKVYACEVTHQGLSSPVTKSFNRGEC
modifications: chelator AGC0015 (12) conjugated; site not stated; none, one or two chelators on a chain
Take B1: the “tumour targeting / build-up of radioactivity” value in the series on HL-60 tumour [1] was “Build-up of radioactivity was seen in the tumour, but in no normal tissue”. Besides, the binding affinity entry with CD33 was “comparable to the non-conjugated AGC0700”.

B2: AGC0715-Th-227: AGC0715 antibody-chelator conjugate chelated with Th-227 (conjugate)
heavy: QVQLVQSGAEVKKPGSSVKVSCKASGYTFTDYNMHWVRQAPGQGLEWIGYIYPYNGGTGYNQKFKSKATITADESTNTAYMELSSLRSEDTAVYYCARGRPAMDYWGQGTLVTVSSASTKGPSVFPLAPSSKSTSGGTAALGCLVKDYFPEPVTVSWNSGALTSGVHTFPAVLQSSGLYSLSSVVTVPSSSLGTQTYICNVNHKPSNTKVDKKVEPKSCDKTHTCPPCPAPELLGGPSVFLFPPKPKDTLMISRTPEVTCVVVDVSHEDPEVKFNWYVDGVEVHNAKTKPREEQYNSTYRVVSVLTVLHQDWLNGKEYKCKVSNKALPAPIEKTISKAKGQPREPQVYTLPPSRDELTKNQVSLTCLVKGFYPSDIAVEWESNGGQPENNYKTTPPVLDSDGSFFLYSKLTVDKSRWQQGNVFSCSVMHEALHNHYTQKSLSLSPG
light: DIQMTQSPSSLSASVGDRVTITCRASESVDNYGISFMNWFQQKPGKAPKLLIYAASNQGSGVPSRFSGSGSGTDFTLTISSLQPDDFATYYCQQSKEVPWTFGQGTKVEIKRTVAAPSVFIFPPSDEQLKSGTASVVCLLNNFYPREAKVQWKVDNALQSGNSQESVTEQDSKDSTYSLSSTLTLSKADYEKHKVYACEVTHQGLSSPVTKSFNRGEC
modifications: chelator AGC0015 (12) conjugated, chelating Th-227; site not stated
B2: in series [2], the “cellular toxicity (cell viability by ATP)” value is given as “resulted in cellular toxicity”. Also, the adverse clinical signs result with HL-60 tumour [3] was “No adverse clinical sigs”. The “tumour targeting / build-up of radioactivity” value in the series with HL-60 tumour [1] was “specific tumour uptake”.

Source of the values: US9827336B2, “Radio-pharmaceutical complexes” (Bayer AS, priority 2012, dated 2017).
